The experiment addresses T1, mouse IL-2Rα on mouse effector CD8+ T cells (mouse, UniProt P01590 22-268).
T1 construct: whole, on cells; also called mIL-2Rα; CD25
T1 sequence (looked up): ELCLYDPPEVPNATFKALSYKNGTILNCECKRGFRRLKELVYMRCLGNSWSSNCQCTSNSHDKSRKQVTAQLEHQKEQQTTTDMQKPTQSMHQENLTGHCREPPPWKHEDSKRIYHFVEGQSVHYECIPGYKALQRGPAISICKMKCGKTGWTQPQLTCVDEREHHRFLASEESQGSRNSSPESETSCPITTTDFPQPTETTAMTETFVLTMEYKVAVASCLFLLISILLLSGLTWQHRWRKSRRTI
The experiment is described as follows: flow cytometry, surface IL-2 staining of mIL-2-pulsed polyclonal effector CD8+ T cells. The method, then: FIGS. 3a-3g—IL-2Rα facilitates sustained IL-2 signaling through creation of an extracellular reservoir and recycling. (a) Presence of IL-2 on the surface of polyclonal T cells depends on IL-2Rα. Polyclonal effector CD8⁺ T cells were pulsed for 2 hours with or without mIL-2. Prior to (and during) the pulse, T cells were incubated with anti-IL-2Rα mAb (PC61). Cells were then washed and stained for surface IL-2. (b) Time course of surface IL-2 on polyclonal T cells after reculture at 37° C. (c) Levels of pSTAT5 in Tc1 cells that were pulsed with IL-2, washed, and recultured at 37° C. with or without anti-IL-2 mAb (clone S4B6 or 1A12). (d) Recycling of IL-2 on effector T cells. Pmel-1 Tc1 cells were incubated with hIL-2 or mIL-2 at 37° C. for 2 hours. As indicated, cells were then acid washed and recultured at 37° C. for 90 minutes in the presence of anti-hIL-2 mAb conjugated to Alexa647. Cells were then washed, fixed, and assayed by flow cytometry. (e) Recycling of IL-2 on pulsed cells while mixed with non-pulsed cells. Pmel-1 Tc1 cells were pulsed with hIL-2 at either 4° C. or 37° C. for 2 hours, and then acid washed. Cells were then mixed with non-pulsed CFSE-labeled Tc1 cells. The mixed cells were recultured at 37° C. for 45 minutes in the presence of anti-hIL-2 mAb conjugated to Alexa647. Cells were then washed, fixed, and assayed by flow cytometry. […]
For orientation: Flow cytometry measures light scatter and fluorescence of single cells or particles in a stream.

B1: Mouse (m) IL-2 (ligand, UniProt P04351 21-169, looked up)
chain: APTSSSTSSSTAEAQQQQQQQQQQQQHLEQLLMDLQELLSRMENYRNLKLPRMLTFKFYLPKQATELKDLQCLEDELGPLRHVLDLTQSKSFQLEDAENFISNIRVTVVKLKGSDNTFECQFDDESATVVDFLRRWIAFCQSIISTSPQ
notes: Bought recombinant cytokine; used at 200 ng/ml in pulse assays; also called mouse IL-2
B1: the binding result is “binds”.

Source of the values: patent US20190322984A1 (MUSC FOUNDATION FOR RESEARCH DEVELOPMENT, published 2019).
